T1: GRIP1_4, Q9Y3R0
T1 sequence (Q9Y3R0 467-571, limits assumed, looked up): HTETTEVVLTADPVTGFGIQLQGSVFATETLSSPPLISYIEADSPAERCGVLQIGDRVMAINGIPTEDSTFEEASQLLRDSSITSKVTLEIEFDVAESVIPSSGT

T2: FRMPD1, Q5SYB0
T2 sequence (Q5SYB0 52-145, limits assumed, looked up): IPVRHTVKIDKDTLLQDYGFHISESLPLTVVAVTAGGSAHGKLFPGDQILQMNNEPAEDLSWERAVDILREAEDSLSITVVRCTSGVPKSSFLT

T3: MPP7, Q5T2T1
T3 sequence (Q5T2T1 134-230, limits assumed, looked up): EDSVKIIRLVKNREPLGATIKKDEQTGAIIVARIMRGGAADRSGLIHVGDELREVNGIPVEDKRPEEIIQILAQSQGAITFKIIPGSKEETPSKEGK

T4: DLG3_2, Q92796
T4 sequence (Q92796 221-321, limits assumed, looked up): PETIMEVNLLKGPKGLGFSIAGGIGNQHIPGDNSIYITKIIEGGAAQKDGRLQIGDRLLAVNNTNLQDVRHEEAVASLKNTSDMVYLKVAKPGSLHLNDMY

T5: RAPGEF6, Q8TEU7
T5 sequence (Q8TEU7 525-625, limits assumed, looked up): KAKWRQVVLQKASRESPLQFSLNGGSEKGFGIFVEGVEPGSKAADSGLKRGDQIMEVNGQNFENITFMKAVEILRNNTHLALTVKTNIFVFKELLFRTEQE

T6: MPP6, Q9NZW5
T6 sequence (Q9NZW5 125-219, limits assumed, looked up): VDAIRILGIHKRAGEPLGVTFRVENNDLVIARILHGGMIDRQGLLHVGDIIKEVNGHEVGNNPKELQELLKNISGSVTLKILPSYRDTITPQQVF

T7: SNTG1, Q9NSN8
T7 sequence (Q9NSN8 52-150, limits assumed, looked up): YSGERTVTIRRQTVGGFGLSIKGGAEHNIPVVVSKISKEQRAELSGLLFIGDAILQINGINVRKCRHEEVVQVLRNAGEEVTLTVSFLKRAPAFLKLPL

T8: LIN7A, O14910
T8 sequence (O14910 103-200, limits assumed, looked up): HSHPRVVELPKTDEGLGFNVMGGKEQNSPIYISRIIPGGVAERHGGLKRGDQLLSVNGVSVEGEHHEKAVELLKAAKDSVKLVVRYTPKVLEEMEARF

T9: CARD11, Q9BXL7
T9 sequence (Q9BXL7 662-765, limits assumed, looked up): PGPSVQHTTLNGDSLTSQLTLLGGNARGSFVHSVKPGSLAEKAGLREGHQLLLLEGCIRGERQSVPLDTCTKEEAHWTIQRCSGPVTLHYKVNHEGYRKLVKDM


Assays:
Test in all cases: holdup assay
Design in all cases: key: below the threshold = too weak to quantify, mostly under pKd 3.1 to 4
Conditions in all cases: plain residues with an end cap or a label only (N-terminal biotin on a linker: ado-ado)
GRIP1_4, Q9Y3R0 = biological target: T1, GRIP1_4, Q9Y3R0
PDZRN4_1, Q6ZMN7 = biological target: PDZRN4_1, Q6ZMN7
Chain of PDZRN4_1, Q6ZMN7 (Q6ZMN7 213-318): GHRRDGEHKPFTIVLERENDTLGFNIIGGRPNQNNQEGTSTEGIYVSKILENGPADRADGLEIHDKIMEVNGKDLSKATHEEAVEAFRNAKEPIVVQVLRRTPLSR

HTRA2, O43464 = biological target: HTRA2, O43464
Chain of HTRA2, O43464 (O43464 355-458): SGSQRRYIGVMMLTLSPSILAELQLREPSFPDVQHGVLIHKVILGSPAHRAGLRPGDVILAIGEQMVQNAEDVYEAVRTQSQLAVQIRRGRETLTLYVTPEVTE

LNX1_3, Q8TBB1 = biological target: LNX1_3, Q8TBB1
Chain of LNX1_3, Q8TBB1 (Q8TBB1 500-596): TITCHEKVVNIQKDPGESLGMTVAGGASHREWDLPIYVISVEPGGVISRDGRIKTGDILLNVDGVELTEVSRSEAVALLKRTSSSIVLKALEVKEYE

FRMPD1, Q5SYB0 = biological target: T2, FRMPD1, Q5SYB0
Inadl_9, Q8NI35 = biological target: Inadl_9, Q8NI35
Chain of Inadl_9, Q8NI35 (Q8NI35 1530-1615): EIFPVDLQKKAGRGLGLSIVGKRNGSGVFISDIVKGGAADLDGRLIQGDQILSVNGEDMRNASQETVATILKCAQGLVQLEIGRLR

GRIP2_5, Q9C0E4 = biological target: GRIP2_5, Q9C0E4
Chain of GRIP2_5, Q9C0E4 (Q9C0E4 544-642): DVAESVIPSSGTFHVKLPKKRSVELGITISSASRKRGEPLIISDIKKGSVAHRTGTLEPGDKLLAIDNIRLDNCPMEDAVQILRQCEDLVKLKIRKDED

MPP7, Q5T2T1 = biological target: T3, MPP7, Q5T2T1
MAGI1_1, Q96QZ7 = biological target: MAGI1_1, Q96QZ7
Chain of MAGI1_1, Q96QZ7 (Q96QZ7 1-106): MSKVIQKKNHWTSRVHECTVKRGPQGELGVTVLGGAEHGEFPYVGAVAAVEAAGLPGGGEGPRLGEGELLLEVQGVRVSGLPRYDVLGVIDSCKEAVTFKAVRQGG

DLG3_2, Q92796 = biological target: T4, DLG3_2, Q92796
IL16_4, Q14005 = biological target: IL16_4, Q14005
Chain of IL16_4, Q14005 (Q14005 1229-1329): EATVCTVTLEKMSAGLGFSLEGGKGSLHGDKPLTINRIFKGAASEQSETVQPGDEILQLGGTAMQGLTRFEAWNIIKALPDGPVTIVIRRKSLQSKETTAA

FRMPD2_3, Q68DX3 = biological target: FRMPD2_3, Q68DX3
Chain of FRMPD2_3, Q68DX3 (Q68DX3 1073-1166): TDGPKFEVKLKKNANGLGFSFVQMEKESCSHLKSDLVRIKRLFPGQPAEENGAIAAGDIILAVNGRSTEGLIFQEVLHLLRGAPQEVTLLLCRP

NHERF4_4, Q86UT5 = biological target: NHERF4_4, Q86UT5
Chain of NHERF4_4, Q86UT5 (Q86UT5 464-550): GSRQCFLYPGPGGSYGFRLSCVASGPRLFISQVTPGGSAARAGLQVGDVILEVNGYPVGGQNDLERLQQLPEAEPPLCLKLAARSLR

RAPGEF6, Q8TEU7 = biological target: T5, RAPGEF6, Q8TEU7
LDB3, O75112 = biological target: LDB3, O75112
Chain of LDB3, O75112 (O75112 1-94): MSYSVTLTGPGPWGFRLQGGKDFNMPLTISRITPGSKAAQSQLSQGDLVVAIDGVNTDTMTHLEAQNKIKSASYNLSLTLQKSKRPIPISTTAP

HTRA1, Q92743 = biological target: HTRA1, Q92743
Chain of HTRA1, Q92743 (Q92743 360-477): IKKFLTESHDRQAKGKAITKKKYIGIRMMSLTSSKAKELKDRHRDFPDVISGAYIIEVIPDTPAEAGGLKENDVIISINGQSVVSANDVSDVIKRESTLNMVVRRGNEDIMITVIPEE

MPP6, Q9NZW5 = biological target: T6, MPP6, Q9NZW5
SNTG1, Q9NSN8 = biological target: T7, SNTG1, Q9NSN8
DLG1_2, Q12959 = biological target: DLG1_2, Q12959
Chain of DLG1_2, Q12959 (Q12959 314-412): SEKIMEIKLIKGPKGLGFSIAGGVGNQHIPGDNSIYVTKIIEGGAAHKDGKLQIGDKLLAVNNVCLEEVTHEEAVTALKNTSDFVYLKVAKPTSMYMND

AHNAK1, Q09666 = biological target: AHNAK1, Q09666
Chain of AHNAK1, Q09666 (Q09666 4-100): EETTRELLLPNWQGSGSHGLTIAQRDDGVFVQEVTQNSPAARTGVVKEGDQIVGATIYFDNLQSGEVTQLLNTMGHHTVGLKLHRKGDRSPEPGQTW

IL16_3, Q14005 = biological target: IL16_3, Q14005
Chain of IL16_3, Q14005 (Q14005 1107-1207): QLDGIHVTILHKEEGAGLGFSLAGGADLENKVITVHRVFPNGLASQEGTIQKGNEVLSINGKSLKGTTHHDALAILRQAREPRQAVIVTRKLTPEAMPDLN

LNX1_1, Q8TBB1 = biological target: LNX1_1, Q8TBB1
Chain of LNX1_1, Q8TBB1 (Q8TBB1 261-371): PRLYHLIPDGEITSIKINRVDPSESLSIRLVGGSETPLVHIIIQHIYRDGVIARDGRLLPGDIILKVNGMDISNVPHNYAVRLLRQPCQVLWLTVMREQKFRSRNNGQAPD

MAST1, Q9Y2H9 = biological target: MAST1, Q9Y2H9
Chain of MAST1, Q9Y2H9 (Q9Y2H9 962-1065): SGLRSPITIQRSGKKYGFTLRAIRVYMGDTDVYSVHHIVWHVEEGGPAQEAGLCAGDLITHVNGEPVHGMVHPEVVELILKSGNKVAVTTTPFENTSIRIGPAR

LIN7A, O14910 = biological target: T8, LIN7A, O14910
CARD11, Q9BXL7 = biological target: T9, CARD11, Q9BXL7
MAGI1_2, Q96QZ7 = biological target: MAGI1_2, Q96QZ7
Chain of MAGI1_2, Q96QZ7 (Q96QZ7 456-580): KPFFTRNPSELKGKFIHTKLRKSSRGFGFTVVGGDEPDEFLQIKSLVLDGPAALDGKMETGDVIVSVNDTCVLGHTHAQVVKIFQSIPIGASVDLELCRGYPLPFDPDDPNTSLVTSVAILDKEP

LIMK2, P53671 = biological target: LIMK2, P53671
Chain of LIMK2, P53671 (P53671 143-248): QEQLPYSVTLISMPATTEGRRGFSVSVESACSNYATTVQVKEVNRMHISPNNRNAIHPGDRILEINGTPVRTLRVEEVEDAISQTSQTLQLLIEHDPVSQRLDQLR

GRIP2_4, Q9C0E4 = biological target: GRIP2_4, Q9C0E4
Chain of GRIP2_4, Q9C0E4 (Q9C0E4 446-548): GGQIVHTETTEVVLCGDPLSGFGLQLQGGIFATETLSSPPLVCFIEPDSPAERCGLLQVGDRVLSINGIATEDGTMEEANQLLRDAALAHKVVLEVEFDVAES

GRIP2_6, Q9C0E4 = biological target: GRIP2_6, Q9C0E4
Chain of GRIP2_6, Q9C0E4 (Q9C0E4 648-740): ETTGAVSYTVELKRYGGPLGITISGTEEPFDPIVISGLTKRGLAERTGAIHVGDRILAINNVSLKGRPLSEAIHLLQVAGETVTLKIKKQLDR

pKd (GRIP1_4, Q9Y3R0)	pKd (PDZRN4_1, Q6ZMN7)	pKd (HTRA2, O43464)	pKd (LNX1_3, Q8TBB1)	pKd (FRMPD1, Q5SYB0)	pKd (Inadl_9, Q8NI35)	pKd (GRIP2_5, Q9C0E4)	pKd (MPP7, Q5T2T1)	pKd (MAGI1_1, Q96QZ7)	pKd (DLG3_2, Q92796)	pKd (IL16_4, Q14005)	pKd (FRMPD2_3, Q68DX3)	pKd (NHERF4_4, Q86UT5)	pKd (RAPGEF6, Q8TEU7)	pKd (LDB3, O75112)	pKd (HTRA1, Q92743)	pKd (MPP6, Q9NZW5)	pKd (SNTG1, Q9NSN8)	pKd (DLG1_2, Q12959)	pKd (AHNAK1, Q09666)	Binder	other results
below the threshold	below the threshold	4.4	below the threshold	below the threshold	4.17	below the threshold	below the threshold	3.48	4.23	3.57	3.52	below the threshold	below the threshold	below the threshold	4.5	below the threshold	below the threshold	3.99	below the threshold	YYKRPVQEWV [MMP24, Q9Y5R2]	pKd (IL16_3, Q14005): below the threshold; pKd (LNX1_1, Q8TBB1): 3.5; pKd (MAST1, Q9Y2H9): below the threshold; pKd (LIN7A, O14910): below the threshold; pKd (CARD11, Q9BXL7): below the threshold; pKd (MAGI1_2, Q96QZ7): below the threshold; pKd (LIMK2, P53671): below the threshold; pKd (GRIP2_4, Q9C0E4): below the threshold; pKd (GRIP2_6, Q9C0E4): below the threshold
below the threshold	below the threshold	below the threshold	below the threshold	below the threshold	3.72	below the threshold	below the threshold	below the threshold	4.98	below the threshold	below the threshold	4.02	below the threshold	below the threshold	5.05	3.92	4.68	5.3	below the threshold	PDGQCTVTEV [RNF146, Q9NTX7]	pKd (IL16_3, Q14005): below the threshold; pKd (LNX1_1, Q8TBB1): 4.12; pKd (MAST1, Q9Y2H9): 4.8; pKd (LIN7A, O14910): below the threshold; pKd (CARD11, Q9BXL7): below the threshold; pKd (MAGI1_2, Q96QZ7): 3.53; pKd (LIMK2, P53671): below the threshold; pKd (GRIP2_4, Q9C0E4): below the threshold; pKd (GRIP2_6, Q9C0E4): below the threshold
below the threshold	below the threshold	below the threshold	below the threshold	below the threshold	below the threshold	below the threshold	below the threshold	below the threshold	below the threshold	below the threshold	below the threshold	below the threshold	below the threshold	below the threshold	below the threshold	3.66	below the threshold	below the threshold	below the threshold	SKSNFGSEPL [KIF17, Q9P2E2]	pKd (IL16_3, Q14005): below the threshold; pKd (LNX1_1, Q8TBB1): below the threshold; pKd (MAST1, Q9Y2H9): 3.61; pKd (LIN7A, O14910): below the threshold; pKd (CARD11, Q9BXL7): below the threshold; pKd (MAGI1_2, Q96QZ7): below the threshold; pKd (LIMK2, P53671): below the threshold; pKd (GRIP2_4, Q9C0E4): below the threshold; pKd (GRIP2_6, Q9C0E4): below the threshold
below the threshold	below the threshold	below the threshold	below the threshold	below the threshold	below the threshold	below the threshold	below the threshold	below the threshold	below the threshold	below the threshold	below the threshold	below the threshold	below the threshold	5.26	below the threshold	below the threshold	below the threshold	below the threshold	below the threshold	DTTVPESEDL [MYOZ2, Q9NPC6]	pKd (IL16_3, Q14005): below the threshold; pKd (LNX1_1, Q8TBB1): below the threshold; pKd (MAST1, Q9Y2H9): 4.21; pKd (LIN7A, O14910): below the threshold; pKd (CARD11, Q9BXL7): below the threshold; pKd (MAGI1_2, Q96QZ7): below the threshold; pKd (LIMK2, P53671): below the threshold; pKd (GRIP2_4, Q9C0E4): below the threshold; pKd (GRIP2_6, Q9C0E4): below the threshold
below the threshold	below the threshold	below the threshold	below the threshold	below the threshold	below the threshold	below the threshold	below the threshold	3.52	4.78	below the threshold	below the threshold	3.91	below the threshold	below the threshold	3.95	below the threshold	3.62	5.21	below the threshold	SAKVRTVTSV [RASL11B, Q9BPW5]	pKd (IL16_3, Q14005): below the threshold; pKd (LNX1_1, Q8TBB1): 4.04; pKd (MAST1, Q9Y2H9): 4.77; pKd (LIN7A, O14910): below the threshold; pKd (CARD11, Q9BXL7): below the threshold; pKd (MAGI1_2, Q96QZ7): 5.51; pKd (LIMK2, P53671): below the threshold; pKd (GRIP2_4, Q9C0E4): below the threshold; pKd (GRIP2_6, Q9C0E4): 3.63

— article PMC9482650, “Quantitative fragmentomics allow affinity mapping of interactomes” (Nature Communications, 2022)
